Source: article doi:10.1101/2020.03.14.988345 (bioRxiv, 2020)

Target: His-SP (RBD) (SARS-CoV-2, UniProt P0DTC2 319-541)
Assay: SPR

B1: His-CD147 (receptor)
chain: AAGTVFTTVEDLGSKILLTCSLNDSATEVTGHRWLKGGVVLKEDALPGQKTEFKVDSDDQWGEYSCVFLPEPMGTANIQLHGPPRVKAVKSSEHINEGETAMLVCKSESVPPVTDWAWYKITDSEDKALMNGSESRFFVSSSQGRSELHIENLNMEADPGQYRCNGTSSKGSDQAIITLRVRSHLAAL
Kd: 185 nM
